Source: patent publication US20180185504A1 (Regeneron, published 2018)
Substitutions are numbered along the chain they refer to. In names and notes the source's numbering stands.

T1: human prolactin receptor (PRLR) (human, UniProt P16471 25-622)
T1 sequence: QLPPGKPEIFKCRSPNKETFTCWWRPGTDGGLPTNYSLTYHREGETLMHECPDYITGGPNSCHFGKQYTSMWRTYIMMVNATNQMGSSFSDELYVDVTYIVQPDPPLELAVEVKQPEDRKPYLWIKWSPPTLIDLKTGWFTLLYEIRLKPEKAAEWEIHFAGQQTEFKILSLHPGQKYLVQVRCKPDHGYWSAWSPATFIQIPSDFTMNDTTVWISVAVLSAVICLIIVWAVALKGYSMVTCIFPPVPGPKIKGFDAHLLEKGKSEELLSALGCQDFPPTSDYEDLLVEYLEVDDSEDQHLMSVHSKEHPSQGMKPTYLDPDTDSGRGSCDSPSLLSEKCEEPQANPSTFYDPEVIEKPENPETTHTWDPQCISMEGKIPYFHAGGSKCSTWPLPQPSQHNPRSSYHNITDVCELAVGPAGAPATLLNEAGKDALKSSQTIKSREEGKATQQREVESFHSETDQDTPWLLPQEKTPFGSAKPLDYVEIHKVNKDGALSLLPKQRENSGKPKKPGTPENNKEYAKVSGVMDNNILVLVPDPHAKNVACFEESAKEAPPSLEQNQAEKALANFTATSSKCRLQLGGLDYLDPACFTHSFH

T2: macaca fascicularis (mf) PRLR.mmh (soluble monomeric monkey PRLR) (Macaca fascicularis)
T2 construct: called soluble monomeric PRLR protein
T2 chain: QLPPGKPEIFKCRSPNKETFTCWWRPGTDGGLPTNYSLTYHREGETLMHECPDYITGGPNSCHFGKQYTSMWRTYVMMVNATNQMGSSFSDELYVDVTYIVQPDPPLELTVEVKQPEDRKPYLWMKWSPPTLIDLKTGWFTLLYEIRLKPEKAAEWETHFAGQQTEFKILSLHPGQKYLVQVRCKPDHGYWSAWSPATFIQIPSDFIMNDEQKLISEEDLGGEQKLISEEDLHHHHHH

T3: hPRLR.mmh (soluble monomeric human PRLR) (human)
T3 construct: called soluble monomeric PRLR protein
T3 chain: T2 chain with V76I, T110A, M125I, T158I, I207T

T4: hPRLR.mFc (soluble dimeric human PRLR) (human)
T4 construct: dimeric PRLR construct
T4 chain: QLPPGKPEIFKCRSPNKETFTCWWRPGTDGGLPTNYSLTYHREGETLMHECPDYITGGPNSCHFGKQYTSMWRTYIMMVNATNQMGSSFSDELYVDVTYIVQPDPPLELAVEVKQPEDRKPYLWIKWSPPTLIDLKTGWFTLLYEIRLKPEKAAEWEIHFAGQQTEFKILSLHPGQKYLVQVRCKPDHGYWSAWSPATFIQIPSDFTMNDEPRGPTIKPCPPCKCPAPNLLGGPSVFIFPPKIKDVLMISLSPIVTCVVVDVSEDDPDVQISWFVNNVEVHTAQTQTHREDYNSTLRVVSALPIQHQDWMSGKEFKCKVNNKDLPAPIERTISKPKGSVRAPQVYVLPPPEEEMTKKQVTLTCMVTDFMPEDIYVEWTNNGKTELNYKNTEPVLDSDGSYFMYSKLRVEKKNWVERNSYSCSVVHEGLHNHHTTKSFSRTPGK

B1: H1H6953N-mc-VC-PAB-MMD (antibody, human IgG1, V domains shown)
VH: EVQLLESGGGLVQPGGTLRLSCAASGFTFSAYAMSWVRQAPGKGLEWVSSINVRAGDTYYADSVKGRFTISRDNSKNTLFLLMNSLRAEDTAAYYCAKARYSSNWGFDFWGQGTLVTVSS
VL: DIVMTQSPDSLTVSLGARTTINCQSSQTILHSSNNHNYLAWYQQKPGLPPKLLIYWSSTRESGVPDRFSGSGSGTDFTLTISSLQAEDVAIYYCQQYSNTPYTFGQGTKLEIN
modifications: MMD conjugated through mc-VC-PAB linker; attachment residues not stated
B2: H1H6800P-DM1 (antibody, human IgG1, V domains shown)
VH: EVQLVESGGGLVQPGRSLRLSCAASGFTFDGYAMHWVRQGPGKGLEWVSGISWYSDTLGYADSVKGRFTISRDNAKNSLYLQMNSLRTEDTAFYYCAKISSSGWAFDYWGQGTLVTVSS
VL: EIVLTQSPGTLSLSPGERATLSCRASHSVSSAYLAWYQQKPGQTPRLLIYGTSSRATGIPDRFSGSGSGTDFTLTISRLEPEDFAVYYCQQYGSSPLFTFGPGTKVDIK
modifications: DM1 conjugated through SMCC linker; attachment residues not stated
B3: H1H6803P-DM1 (antibody, human IgG1, V domains shown)
VH: EVQLVESGGGVVRPGGSLRLSCAASGFKFDDYGMTWVRHVPGKGLEWVSGINWNGGRTGYTDSVKGRFTISRDNAKNSLYLQMNSLRAEDTALYHCAGARRDAFDIWGQGTMVTVSS
VL: DIQMTQSPSSLSASIGDRVTITCRASQNIIKYLNWYQQNAGKAPKLLIYTASSLQSGVPSRFSGSGSGTDFTLTISSLQPEDFATYYCQQSSSSPYTFGQGTKLEIK
modifications: DM1 conjugated through SMCC linker; attachment residues not stated
B4: H1H6762P-DM1 (antibody, human IgG1, V domains shown)
VH: QVQLVESGGGVVQPGRSLRLSCAASGFTFSHYGMVWVRQPPGKGLEWVALISFDGTTKYYADSVKGRFTISRDNSKNTLYLQMNSLRAEDTAVYFCVGAIAAAAFDLWGRGTLVTVSS
VL: EIVMTQSPATLSVSPGERATLSCRASQSVSSDLAWYQQKPGQAPRLLIYSASARATGIPARFTGSGSGTDFTLTISSLQSEDFAVYYCQQYNNWPMYTFGQGTKLEIK
modifications: DM1 conjugated through SMCC linker; attachment residues not stated
B5: H1H6793P-DM1 (antibody, human IgG1, V domains shown)
VH: EVQLVESGGGLVQPGGSLRLSCAASGFSFSIYAMSWFRQAPGKGLEWVSAINGRGDGTHYADSVKGRFTISRDNSKTTLYLQMSSLRAEDTAVYYCAKPVMSTNGFDIWGQGTMVTVSS
VL: DIQMTQSPSTLSASVGDRVTITCRASQSISSWLAWYQLKPGKAPKLLIYKASNLESGVPSRFSGSGSGTEFTLTISSLQPDDFATYYCQQYNIYWTFGQGTKVEIK
modifications: DM1 conjugated through SMCC linker; attachment residues not stated
B6: H1H6959N2-DM1 (antibody, human IgG1, V domains shown)
VH: EVQLVESGGGLVQPGRSLRLSCAASGFTFDDYAMHWVRQAPGKGLEWVSGISWHSGIIGYADSVKGRFTISRDNAKNSLYLQMNSLRTEDAALYYCAKIGSYFYFDSWGQGTLVTVSS
VL: EIVLTQSPGTLSLSPGERATLSCRASQSVSSNYLAWYQQKPGQAPRLLIYGASSRATGIPDRFSGSGSGTDFTLTISRLEPEDFAVYYCQQFGSSGYTFGQGTNLEIK
modifications: DM1 conjugated through SMCC linker; attachment residues not stated
B7: H1H6960N-DM1 (antibody, human IgG1, V domains shown)
VH: EVQLVESGGGLVKPGGSLRLSCAASGITFSSYSMNWVRQAPGKGLEWVSSISTRSSLIHYADSVKGRFTISRDNAKNSLYLQMNSLRDEDTAVYYCARWDAAAAFDYWGQGTLVIVSS
VL: DIQLTQSPSFLSASVGDRVTITCWASQGISSYLAWYQQKPGKAPKLLIYVASTLQSGVPSRFSGSGSGTEFTLTISSLQPEDFATYFCQQLNSYPLTFGGGTKVEIK
modifications: DM1 conjugated through SMCC linker; attachment residues not stated
B8: H1H6958N2 (antibody, human IgG1, V domains shown)
VH: QVQLVESGGGVVQPGRSLRLSCGASGFTFRNYGMQWVRQGPGKGLEWVTLISFDGNDKYYADSVKGRFTISRDNSKNTLFLQMNSLRTEDTAVYYCARGGDFDYWGQGTLVTVSS
VL: DIQMTQSPSSLSASVGDRVTITCRASQDIRKDLGWYQQKPGKAPKRLIYAASSLHSGVPSRFSGSGSGTEFTLTISSLQPEDFATYYCLQHNSYPMYTFGQGTKLEIK
notes: Tested with human IgG1 Fc (H1H); also called H2M6958N2
B9: H1H6959N2 (antibody, human IgG1, V domains shown)
VH: B6 VH
VL: B6 VL
notes: Tested with human IgG1 Fc (H1H); also called H2M6959N2
B10: H1H6960N (antibody, human IgG1, V domains shown)
VH: B7 VH
VL: B7 VL
notes: Tested with human IgG1 Fc (H1H); also called H2M6960N

Molecular target: T1, human prolactin receptor (PRLR)
Assay: cell-based or functional assay

Binder	% Kill, T47D cells	IC50, cell viability, T47D cells
B1	90%	1 nM

Molecular target: T1, human prolactin receptor (PRLR)
Assay: cell-based or functional assay
Remark: another data set of the same source

Binder	% Kill, PC3/PRLR cells	IC50, cell viability, PC3/PRLR cells	% Kill, 293/PRLR cells	IC50, cell viability, 293/PRLR cells
B2	68%	1.37 nM		
B3	70%	2.32 nM		
B4	66%	0.98 nM		
B5	65%	3.65 nM		
B6	82%	11.6 nM	95%	4.82 nM
B7	82%	1.13 nM	95%	0.38 nM

Molecular target: T1, human prolactin receptor (PRLR)
Assay: cell-based or functional assay
Remark: another data set of the same source

Binder	% Kill, MCF7/ATCC cells	% Kill, MCF7/PRLR cells	IC50, cell viability, MCF7/ATCC cells	IC50, cell viability, MCF7/PRLR cells
B1	50%	90%	300 nM	0.2 nM

Molecular target: T1, human prolactin receptor (PRLR)
Assay: cell-based or functional assay
Remark: another data set of the same source

Binder	% Kill, MCF7/PRLR cells	% Kill, MCF7 cells	% Kill, T47D cells	IC50, cell viability, MCF7/PRLR cells	IC50, cell viability, MCF7 cells	IC50, cell viability, T47D cells
B2	85%	65%	79%	0.4 nM	150 nM	3.2 nM
B3	84%	60%	77%	0.44 nM	150 nM	8.61 nM
B4	83%	64%	80%	0.46 nM	110 nM	12.6 nM
B5	87%	67%	53%	0.54 nM	125 nM	11.1 nM
B6	80%	82%	71%	0.47 nM	100 nM	48.9 nM
B7	78%	77%	71%	0.29 nM	100 nM	5.1 nM

Molecular target: T2, macaca fascicularis (mf) PRLR.mmh …
Assay: SPR Biacore, 25 C, mAb capture
Method: (§1) Measurements were conducted on a T200 Biacore instrument. Kinetic association (kₐ) and dissociation (kd) rate constants were determined by processing and fitting the data to a 1:1 binding model using Scrubber 2.0 curve fitting software.

Kd	T½	koff	kon	Binder
1.44 nM	41.3 min	0.00028 s⁻¹	195000 M⁻¹ s⁻¹	B8
129 nM	0.7 min	0.0167 s⁻¹	129000 M⁻¹ s⁻¹	B9
6.2 nM	19.8 min	0.000583 s⁻¹	94000 M⁻¹ s⁻¹	B10

Molecular target: T3, hPRLR.mmh (soluble monomeric human PRLR)
Assay: SPR Biacore, 25 C, mAb capture
Method: as §1

Kd	T½	koff	kon	Binder
1.17 nM	42.5 min	0.000272 s⁻¹	233000 M⁻¹ s⁻¹	B8
202 nM	0.3 min	0.036 s⁻¹	179000 M⁻¹ s⁻¹	B9
6.74 nM	15.8 min	0.000729 s⁻¹	108000 M⁻¹ s⁻¹	B10

Molecular target: T4, hPRLR.mFc (soluble dimeric human PRLR)
Assay: SPR Biacore, 25 C, mAb capture
Method: as §1

Kd	T½	koff	kon	Binder
0.0867 nM	316 min	3.66e-05 s⁻¹	422000 M⁻¹ s⁻¹	B8
1.45 nM	22.3 min	0.000518 s⁻¹	359000 M⁻¹ s⁻¹	B9
0.141 nM	324 min	3.56e-05 s⁻¹	252000 M⁻¹ s⁻¹	B10
